Laboratory results: publication PMC9122495, “Seipin transmembrane segments critically function in triglyceride nucleation and lipid droplet budding from the membrane” (eLife, 2022)

Target: the molecule itself
Test: cryo-EM structure; LDAF1-FLAG/seipin (1–310) sample in PMAL C8, 25 mM HEPES pH 7.4, 150 mM NaCl, 2 mg/ml, PEGylated with MS(PEG)12; 3D classification without symmetry; one class with the luminal domains used; TM region at low resolution

B1: seipin (1–310) (domain or fragment, human, UniProt Q96G97 1-310, looked up)
chain: MVNDPPVPALLWAQEVGQVLAGRARRLLLQFGVLFCTILLLLWVSVFLYGSFYYSYMPTVSHLSPVHFYYRTDCDSSTTSLCSFPVANVSLTKGGRDRVLMYGQPYRVTLELELPESPVNQDLGMFLVTISCYTRGGRIISTSSRSVMLHYRSDLLQMLDTLVFSSLLLFGFAEQKQLLEVELYADYRENSYVPTTGAIIEIHSKRIQLYGAYLRIHAHFTGLRYLLYNFPMTCAFIGVASNFTFLSVIVLFSYMQWVWGGIWPRHRFSLQVNIRKRDNSRKEVQRRISAHQPGPEGQEESTPQSDVTED
notes: seipin, human, residues 1-310; No tag is stated for seipin; It was purified through the FLAG tag of co-expressed LDAF1; The sample was treated with MS(PEG)12 methyl-PEG-NHS-ester before cryo-EM; The introduction calls human seipin an undecamer, citing other work; also called human seipin
- binding result: binds
